Measured values as given in article PMC5454376, “Molecular mechanism of Gαi activation by non-GPCR proteins with a Gα-Binding and Activating motif” (Nature Communications, 2017).

B1: Human His-Gαi3 WT [human] / Fluorescein-labelled GIV peptide (residues 1,671–1,701) [modified: 5,6-carboxyfluorescein coupled to the resin-bound peptide after chain elongation; 5,6-carboxyfluorescein coupled to the resin-bound … (parent)
chain 1: MGCTLSAEDKAAVERSKMIDRNLREDGEKAAKEVKLLLLGAGESGKSTIVKQMKIIHEDGYSEDECKQYKVVVYSNTIQSIIAIIRAMGRLKIDFGEAARADDARQLFVLAGSAEEGVMTPELAGVIKRLWRDGGVQACFSRSREYQLNDSASYYLNDLDRISQSNYIPTQQDVLRTRVKTTGIVETHFTFKDLYFKMFDVGGQRSERKKWIHCFEGVTAIIFCVALSDYDLVLAEDEEMNRMHESMKLFDSICNNKWFTETSIILFLNKKDLFEEKIKRSPLTICYPEYTGSNTYEEAAAYIQCQFEDLNRRKDTKEIYTHFTCATDTKNVQFVFDAVTDVIIKNNLKECGLY
chain 2: KTGSPGSEVVTLQQFLEESNKLTSVQIKSSS
B2: Human His-Gαi3 WT [human] / Fluorescein-labelled DAPLE peptide (residues 1,662–1,695) [modified: 5,6-carboxyfluorescein coupled to the resin-bound peptide after chain elongation; 5,6-carboxyfluorescein coupled to the … (parent)
chain 1: B1 chain 1
chain 2: SASPSSEMVTLEEFLEESNRSSPTHDTPSCRDDL
B3: Human His-Gαi3 WT [human] / Fluorescein-labelled RGS12 GoLoco peptide (residues 1,185–1,221) [modified: 5,6-carboxyfluorescein coupled to the resin-bound peptide after chain elongation; 5,6-carboxyfluorescein coupled to the … (parent)
chain 1: B1 chain 1
chain 2: DEAEEFFELISKAQSNRADDQRGLLRKEDLVLPEFLR

Variants of: B1
Experiment: fluorescence polarisation
Conditions: with Fluorescein-labelled GIV peptide (residues 1,671–1,701) [modified: 5,6-carboxyfluorescein coupled to the resin-bound peptide after chain elongation

Compared with chain 1 K257A, chain 1 F215A is higher in ratio to parent: 1.77 for the first, > 20 for the second.

First: chain 1 S252D
Second: chain 1 S252A
The ratio to parent of the first is higher: 5.32 for the first, 0.417 for the second.

Going from chain 1 W258F to chain 1 L36A, the ratio to parent falls from 3.59 to 1.22.

Going from chain 1 N256A to chain 1 N256E, the ratio to parent rises from 2.11 to > 40.

First: chain 1 L39A
Second: chain 1 I184A
The ratio to parent of the first is higher: 5.3 for the first, 3.28 for the second.

Going from chain 1 V218A to chain 1 G42R, the ratio to parent rises from 0.623 to 0.649.

First: chain 1 L249H
Second: chain 1 L249V
The ratio to parent of the first is higher: 7.58 for the first, 2.35 for the second.

First: chain 1 L37A
Second: chain 1 K35A
The ratio to parent of the first is lower: 0.822 for the first, > 20 for the second.

Going from chain 1 W211A to chain 1 F259A, the ratio to parent falls from > 40 to 2.57.

chain 1 F215A and chain 1 N256E cannot be ordered by Kd: > 10 µM for the first, > 20 µM for the second.

Compared with chain 1 G42R, chain 1 K35A is higher in Kd: 0.377 µM for the first, > 10 µM for the second. The first binds more tightly here.

chain 1 W211A was tested, and the Kd was > 20 µM.

Variants of: B2
Experiment: fluorescence polarisation
Conditions: with Fluorescein-labelled DAPLE peptide (residues 1,662–1,695) [modified: 5,6-carboxyfluorescein coupled to the resin-bound peptide after chain elongation

Work on chain 1 F259A yielded a ratio to parent of 2.

Variants of: B3
Experiment: fluorescence polarisation
Conditions: with Fluorescein-labelled RGS12 GoLoco peptide (residues 1,185–1,221) [modified: 5,6-carboxyfluorescein coupled to the resin-bound peptide after chain elongation

First: chain 1 K35A
Second: chain 1 I184A
The ratio to parent of the first is higher: 2.79 for the first, 1.53 for the second.

Compared with chain 1 F215A, chain 1 L249V is lower in ratio to parent: 10.1 for the first, 1.54 for the second.

First: chain 1 L249H
Second: chain 1 N256E
The ratio to parent of the first is lower: 4.89 for the first, 5.78 for the second.

Going from chain 1 N256A to chain 1 L36A, the ratio to parent rises from 1.42 to 2.18.

Compared with chain 1 W211A, chain 1 F259A is higher in ratio to parent: 1.11 for the first, 3.43 for the second.

Going from chain 1 L37A to chain 1 W258F, the ratio to parent falls from 1.46 to 1.15.

Compared with chain 1 K257A, chain 1 V218A is higher in ratio to parent: 1.58 for the first, 1.92 for the second.

First: chain 1 G42R
Second: chain 1 S252A
The ratio to parent of the first is higher: 1.81 for the first, 0.644 for the second.

Compared with chain 1 S252D, chain 1 L39A is lower in ratio to parent: 6.17 for the first, 3.23 for the second.

Work on chain 1 G42R yielded a Kd of 0.098 µM.
